Measured values reported in patent US20150166611A1.

How the values were obtained:
[1] = biological target: wild-type HIV-1NL4-3 Env (unlabeled gp120 protomers of the trimer on virions) (HIV-1 NL4-3); experiment: intermolecular smFRET; CD4 bound to an unlabeled gp120 of the trimer, donor Cy3 on the neighbouring labelled gp120
[2] = biological target: HIV-1 Env (NL4-3) labeled with Cy3 at the LV4-2-A1 loop insertion, on virions (HIV-1 NL4-3); experiment: intermolecular smFRET; high-FRET state assigned to CD4 bound to the Cy3-labelled gp120

Cy5-labeled soluble CD4(C92) (D1-D2) (from UniProt P01730 26-208) (receptor)
FRET state (intermediate) (FRET efficiency) [1]: 0.3 | FRET state (low) (FRET efficiency) [1]: 0.2 | FRET state (high) (FRET efficiency) [2]: 0.85
